Reference: paper PMC6423008
“And” between values parts separate entries of the source, which are not always exact repeats. Equal entries are not always repeated.

Tests used:
[1] = target: His52 (UniProt position 53, FTWSQHYSGGH); assay: NMR; details: 283 K (10 °C), 50 mM KCl plus 20 mM potassium phosphate, folded, 0.5 mM protein
[2] = target: His57 (UniProt position 58, HYSGGHTMTNK); assay: NMR; details: 283 K (10 °C), 50 mM KCl plus 20 mM potassium phosphate, folded, 0.5 mM protein
[3] = target: His98 (UniProt position 99, NFPNYHQTSEI); assay: NMR; details: 283 K (10 °C), 50 mM KCl plus 20 mM potassium phosphate, folded, 0.5 mM protein
[4] = target: His98 (UniProt position 99, SEKFSHEQEVK); details: apo chicken liver BABP; cited from earlier work
[5] = 0.05% NaN3, holo: doubly ligated I-BABP:GCDA:GCA = 1.0:1.5:1.5 complex

Ileal bile acid-binding protein (I-BABP, gastrotropin, FABP6) (Homo sapiens)
pKa ([1]; 0.05% NaN3, apo (ligand-free)): 6.7 | pKa [1, 5]: 6.6 and 6.5 and 6.8 | pKa ([2]; 0.05% NaN3, apo (ligand-free)): 6.4 | pKa [2, 5]: 7.9 | pKa ([3]; 0.05% NaN3, apo (ligand-free)): 6.6 and 6.7 and 6.8 | pKa [3, 5]: 7.0 and 7.2

Liver bile acid-binding protein (cL-BABP, liver basic fatty acid-binding protein) (Gallus gallus)
pKa [4]: 4.7
